Results as given in patent US20070270486.

Target: T1, Myocilin tagged at its C-terminus with S-peptide, Q99972
T1 chain: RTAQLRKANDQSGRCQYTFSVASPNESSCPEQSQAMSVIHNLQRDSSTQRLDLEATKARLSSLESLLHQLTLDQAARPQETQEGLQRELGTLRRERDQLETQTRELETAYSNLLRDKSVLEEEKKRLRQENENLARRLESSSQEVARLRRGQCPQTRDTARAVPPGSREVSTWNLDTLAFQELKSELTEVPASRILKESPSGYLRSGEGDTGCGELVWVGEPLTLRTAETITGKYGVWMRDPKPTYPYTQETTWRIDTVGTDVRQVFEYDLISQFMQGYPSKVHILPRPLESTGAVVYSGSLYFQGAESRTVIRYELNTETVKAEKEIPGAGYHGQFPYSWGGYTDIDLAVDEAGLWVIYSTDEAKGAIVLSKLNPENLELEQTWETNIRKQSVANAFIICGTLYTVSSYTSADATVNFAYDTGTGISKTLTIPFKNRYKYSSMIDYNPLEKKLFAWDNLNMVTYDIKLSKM

B1: S-protein (protein)
chain: SSSNYCNQMMKSRNLTKDRCKPVNTFVHESLADVQAVCSQKNVACKNGQTNCYQSYSTMSITDCRETGSSKYPNCAYKTTQANKHIIVACEGNPYVPVHFDASV
RNAase analysis of culture medium (enzymatic recombination assay): the assay can detect secreted myocilin in less than 1 µl of media
